In the nanobody polyreactivity screen of Harvey et al. (2022):

Experiment: yeast display, Sf9 membrane polyspecificity reagent, FACS + sequencing; frameworks hold sequencing errors
Procedure, shortened: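 Genes from sorted yeast were amplified by colony PCR, read by MiSeq 2 × 250 sequencing and filtered on CDR length. These cells carried a synthetic nanobody library in Saccharomyces cerevisiae BJ5465 and were sorted by FACS into low and high (top ~1%) gates on anti-HA and streptavidin fluorescence. Polyreactivity is labelled according to the gate of origin.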

Sequence	polyreactivity (PSR sort gate)
QVQLVESGGGLVQAGGSLRLSCAASGRIFPYNAMGWYRQAPGKERELVAAINWSGGSTYYADSVKGRFTISRDNAKNTVYLQMNSLKPEDTAVYYCAAVYRYNSDPDYDYWGQGTQVTVSS	high polyreactivity
QVQIVESGGGLVQAGGSLRLSCAAYGSIFVRNVMGWYRQAPGKERELVATIRYRGGSTYYADSVKGRFTISRDNAKNTVYLQMNSLKPEDTAVYYCNARYLWADEYYYWGQGTQVTVSS	low polyreactivity
QVQLVESGGGLVQAGGSLRLSCAASGRIFPHYAMGWYRQAPGKERELVAAISRSGVSTYYADSVKGRFTISRDNAKNTVYLQMNSLKPEDTAVYYCNIVRYSFLYSVTYNYWGQGTQVTVSS	high polyreactivity
QVQLVESGGGLVQAGGSLRLSCAASGRIFKNNAMGWYRQAPGKERELVAAITWRSGRTYYADSVKGRFTISRDNAKNTVYLQMNSLKAEDTAVYYCAKQVFGYGIVNNGDYWGQGTQVTVSS	high polyreactivity
QVQLVESGGGLVQAGGSLRLSCAASGITFGTYAMGWYRQAPGKERELDAAIDTSGDDTYYADSVKGRFTISRDNAKNTVYLQMNSLKPEDTAVYYCAADFPSAEVDYWGQGTQVTVSS	low polyreactivity
QVQLVESGGGLVQAGGSLRLSCAASGLIVPWYDMGWYRQAPGKERELVAAINWRGGSTYYADSVKGRFTISRDNAKNTVYLQMKSLKPEDTAVYYCAACYLHRDSYIYDYWGQGTQVTVSS	low polyreactivity
QVQLVESGGGLVQAGGSLRLSCAASGSTFAPNTMGWYRQAPGKERELVARITTSDGSTTYADSVKGRFTISRDYAKNTVFFQMNILNPEDTAVYYCARDNTFCTWPSSLYDYWGQGTQVTVSS	low polyreactivity
QVQLVESGGGLVQAGGRLRLSCAASGGIIWAYAMGRYRQAPGKERELVAAISSSTGTTYYADSVKGRFTISRDNAKNTVYLQMNSLKPEETAVYYCAAYAYIGDYVSYYGGDYWGQGTQVTVSS	low polyreactivity
QVQLVESGAGLVQAGGSLRLSCAASGSIFVVYAMGWYRQAPWKERELVAAISWGIGSTYYADSVKGRFTISRDNAKNTVYLQMNSLKPEDTAVYYCAADTDIVLYDYWGQGTQVTVSS	low polyreactivity
QVQLVESGVGLVQAGGSLRLSCAASGYIFYYYAMGWYRQAPGKESELVAAISSTVSTNYADSVKGRFTISRDNAKNTVYLQMNSLKPEDTAVYYCAAAQRVNHVWYDYWGQGTQVTVSS	low polyreactivity
QVQLVDSGGGLVQAGGSLRLSCSASGRIFLRYPMGCYRQSPGKERELVAVITWSGGSTNYADSVKGRFTISRDNAKNTVYLQMNSLKPEDTAVYYCAVDNTGRSWPYDYWGQGTQVTVSS	low polyreactivity
QVQLVESGGGLVQAGGSLRLSCAASGIIFYGYVMGWYRQAPGKERELVAAISKSGGSTYYADSVKGRFTISRDNAKNTVYLQMNSLKPEETAVYYCAAERKSFYRYNYWGQGTQVTVSS	high polyreactivity
QVQLLESWGGLVHAGGSLRLSCAASGRIIYRYAMGWSRQAPGNERELVAGISNAGGSTYYADSVKGRFTISRDNAKNTVYLQMNSLKPEDTAVYYCATGPSYRYDKGGGRSRYYYWGQGTQVTVSS	high polyreactivity
QVQLVESGGGLVQAGGSLRLSCAASGRILASYAMGWYRQAPGKERELVAAIRYRGSTSYADSVKGRFTISRDNAKNTVYLQMNSLKPEDTAVYYCNAGLEYYYWGYTWEFDYWGQGTQVTVSS	low polyreactivity
QVQLVESGGGLVQAGGSLRLSCAASGRIFQINAMGWYRQAPGKERELVAAISWSDDTTYYADSVKGRFTISRDNAKNTVYLQMISLKPEDTAVYYCAAERGQDYSYSGDDDYWGQGTQVTVSS	high polyreactivity
QVQLVESGGGLFQAGGILRLSCAASGFIFSSYAMGLYRLAPGKERELVAAISRSGGRTYYADSVKGRFTISRDYAKNTVYLQMNSLKPEDTAVYYCAARWYGLYLQRYDYWGQGTQVTVSS	high polyreactivity

Sequence	polyreactivity (PSR sort gate)
QVQLVESGGGLVQAGGSLRLSCAASGSIYAINVMGWYRQAPGKERDFDAAISVRSGSTYYADSVKGRITISRDNAKNTVYLQMNSLKPEDTAVIYCAARTSRFWRGGGLDYWGQGTQVTGSS	high polyreactivity
QVQHVESGGCLVQAGGSLRLSCASSGSIFDRNAMGWYRQAPGKERELVAAISSRGGSTYYADSVKGRFTISRDNAKNTVYLQMNSLKPEDTAVYYSAKRRDLYGGYRPYYYWGQGTQVTVSS	high polyreactivity
QVQLVESGGGLVQAGGSLRLSCAASGNTFDIYAMGWYRQAPGKERELVAAISRRGGSTYYADSVKGRFTISRDNAKNTVYLQMNSLKPEDTAVYYCNTYSGPYSISDYWGQGTQVTVSS	high polyreactivity
QVQLVESGGGLVQAGGSLRLSSAASGRIFTIYAMGWYRQAPGKERELVATISRRGGSTYYADSVKGRFTISRDNAKNTVYLQMNSLKPEDTAGYYCAADSVITWWAYDYWGQGTQVTVSS	high polyreactivity
QVQLVESGGGLVQAGGSLRLSCAASGRIFWGNAMGWYRQAPGKERELVAAINWSGGSTYYADSVKGRFTISRDNAKNTVYLQMNTLKPEDTAVYYCAADANGIVRYYYWGQGTQVTVSS	low polyreactivity
QVQLVESGGGLVQAGGSLRLSSAPSGSTYYVYDMGWYRQAPGKERELVAAITSGGSTNNADSVKGRFTISRDNAKNTVYLEMKSLKPVDTAVYYCAAQGRVWDSYGYEYVQEVTRDYWGQGTQVNVSS	low polyreactivity
QVQLVESGGGLLQAGGSLRLSCAASGFTIDRYAMGWYRQAPGKERELVAAISWGGGSTYYAVSVKGRFTISRDNAKNTVYLQMNSLKPEDTAVYYCAASRGFYHPKYESWGQGTQVTVSS	high polyreactivity
QVQLVESGGGLVQAGGSLRLSCAASGRIFRVYAMGWYRPAPGKERELVAAITSGGTTYADSVKGRFTISRDNAKNTVYLQMYSLKPEDTAVYYCAARHAYPYRRGDFNYWGQGTQVTVSS	high polyreactivity
QVQLVESGGGLVQAGGSLRLSCAASGFTFSYYAMGWYRQAPAKEREVVAAISRSGGSTYYADSVKGRFTISRDNAKNTVYFQMNSLIPEDTAVYYCATDLYYRHGYCGQGTQVTVSS	high polyreactivity
QVQLVESGGGLVQAGGSLRLSCAASGLTFWYYDMGWYRQAPGKERELVAAISGTGSTYADSVKGRFTISRDNAKNTVYLQMNSLKPEDTAVYYCAADYSGTPYAVYWQWGDYDYWGQGTQVTVSS	low polyreactivity
QVQLQESGGGLVQACGSLRLSCAASGYIFSHQYMGWYRQAPGKERELVASISPGATTNYADSVKGRFTISRDNAKNTVFLQMNSLKPEDTAVYYYAVYQMLDRRLSYWGQGTQVTVSC	high polyreactivity
QVQLVESGGGLVQAGGSLRLSCAASGFIFRYYAMGWYRQAPGKERELVATISYRGASTYYADSVKGRFTISRDNAKNTVYLQMNSLKPEDTAVYYCAADWGWYWYIYDYWGQGTQVTVSS	low polyreactivity
QVQVVESGGGIVQAGGSLRLSCAASGFIFNGNAMGWYRQAPGKERELVAADSVKGRFTISRDNAKNSVYLQMNRLKPEDTAVYYCATEFWQASDYDYWGHGTQVTVSS	low polyreactivity
QVQLVESGGGLVQAGGSHRLSCAASGSILSYYAMGWYRQAPGQEREFVAAIRTRGGSTYYADSVKGRFTISRDNAKNTVYLQMYSLKPEDTAVYYFAARTRPDRVRQGRYYYWGQGTQVTVSS	high polyreactivity
QVQLVESGGGLVQAGGSLRLSCAASGSTFGLYVMGWYRQAPGQERELVAAISRRGGSTYYADSVKGRFTSSRDNAKNTVYLQMNSLKPEDTAVYYCNTYYRGGPYDVAYDYWGQGTQVTVSS	high polyreactivity
QVQLVESGGGLVQAGCSLRLSCAASGRNFRYYAMGLYRQAPGKERELVAAIDTGDTYYADSVKGRFTISRDNAKYTGYLQMNSLKPEDTAVYYSAAEGSTSLDDYWGQGTQVTVSS	high polyreactivity
